{"source": "paper PMC2605743", "about": "“Lipid bilayer composition influences small multidrug transporters” (BMC Biochemistry, 2008)", "key": {"[1]": {"tested_on": "C[n+]1ccc(-c2cc[n+](C)cc2)cc1", "assay": "purified protein", "details": "labelled compound; DOPC liposomes without added DOPG; pH gradient (inside 7.5, outside 8); saturation incomplete, estimate"}, "[2]": {"molecular_target": "T1, EmrE (Escherichia coli, UniProt P23895)", "T1 construct": "dimer by TPP stoichiometry", "T1 sequence (P23895 whole entry)": "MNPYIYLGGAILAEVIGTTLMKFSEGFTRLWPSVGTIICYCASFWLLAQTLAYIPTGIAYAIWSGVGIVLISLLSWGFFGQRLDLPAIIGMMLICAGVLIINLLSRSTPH", "assay": "isothermal titration calorimetry", "format": "binding"}}, "data": [{"compound": "EmrE (Escherichia coli K-12)", "values": [{"measurement": "Km", "setting": "[1]", "result": "1100 ± 500", "unit": "µM"}, {"measurement": "Vmax", "setting": "[1]", "result": 2, "unit": "µmol/min"}]}, {"compound": "c1ccc([P+](c2ccccc2)(c2ccccc2)c2ccccc2)cc1", "note": "[TPP]", "values": [{"measurement": "Kd", "setting": "[2]", "result": 36, "unit": "nM"}]}]}
